Activity (% of hygroR colonies recombined) and activity data for 1 substance are collected here from patent US20100050279.

This data set has as its target T1, FLPo (codon-optimized FLPe recombinase) (UniProt P03870).
T1 sequence: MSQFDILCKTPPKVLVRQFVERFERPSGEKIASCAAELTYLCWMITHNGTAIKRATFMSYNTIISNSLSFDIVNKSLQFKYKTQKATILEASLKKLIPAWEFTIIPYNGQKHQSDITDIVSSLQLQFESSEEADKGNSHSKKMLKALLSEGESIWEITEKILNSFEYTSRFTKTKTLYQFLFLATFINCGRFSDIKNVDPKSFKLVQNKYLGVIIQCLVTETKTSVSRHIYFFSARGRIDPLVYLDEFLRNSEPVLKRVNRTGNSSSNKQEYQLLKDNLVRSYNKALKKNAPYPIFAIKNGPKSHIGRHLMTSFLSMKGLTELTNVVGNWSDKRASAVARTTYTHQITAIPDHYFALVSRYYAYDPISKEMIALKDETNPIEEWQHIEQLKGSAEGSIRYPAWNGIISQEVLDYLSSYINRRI
As to the kind of experiment: cell_activity.

Take “FRT (FLP recognition site) in ROSA26 PLAP reporter”: the activity (% of hygroR colonies recombined) (stable integration, 7 of 14 colonies) stood at 50. Besides, under “transient, mouse FLP reporter ES cells, 10 ug circular plasmid, 5 days, value stated as nearly 75%, nearly 20-fold over FLPe”, the activity came to 75%.
